{"source": "paper PMC7272460", "about": "“Structural and functional evidence of bacterial antiphage protection by Thoeris defense system via NAD^+ degradation” (Nature Communications, 2020)", "key": {"[1]": {"system": "NC(=O)c1ccc[n+]([C@@H]2O[C@H](COP(=O)(O)OP(=O)(O)OC[C@H]3O[C@@H](n4cnc5c(N)ncnc54)[C@H](O)[C@@H]3O)[C@@H](O)[C@H]2O)c1", "assay": "purified protein", "format": "biochemical, Bacillus cereus", "conditions": "2.0 μM ThsA, 63 mM NaCl, 14 mM Tris-HCl pH 7.5, 25 °C"}, "[2]": {"target": "the molecule itself", "assay": "SEC-MALS; Superdex 200 Increase 10/300 GL, 200 mM NaCl, 2 mM DTT, 20 mM HEPES pH 7.5, 25 °C; ThsA loaded at 11 mg/mL, ThsB at 24 mg/mL (~1 mM)"}, "[3]": {"target": "the molecule itself", "assay": "crystal structure; ThsA crystals, sitting drop, 20 °C, 22% polypropylene glycol 400, 0.2 M MgCl2, 0.1 M MES pH 6.5; 2.5 Å; four protomers in the asymmetric unit"}, "[4]": {"target": "the molecule itself", "assay": "SEC; analytical SEC of single ThsA proteins (wild type, N112A, H152A) to compare the oligomeric state; Superdex 200 10/300 GL, 150 mM NaCl, 1 mM DTT, 20 mM HEPES pH 7.5"}}, "note": "“And” between values parts separate entries of the source, which are not always exact repeats. Equal values may be shown once.", "data": [{"molecule": "ThsA (Bacillus cereus MSX-D12)", "values": [{"measurement": "Km", "setting": "[1]", "value": 270, "unit": "µM"}, {"measurement": "kcat", "setting": "[1]", "value": 0.565, "unit": "s⁻¹"}]}, {"molecule": "ThsA of the Bacillus cereus MSX-D12 Thoeris defense system, wild type (enzyme, ThsA, Bacillus cereus MSX-D12, synthetic thsA gene in pET28a; the structure has an N-terminal sirtuin-like domain (residues 1-283) and a C-terminal SLOG-like domain (residues 284-476); The synthetic thsA gene was cloned; Predominantly a tetramer by SEC-MALS, with a trace of octamer; also called B. cereus ThsA; wild-type ThsA; source: E. coli BL21(DE3), purified (HisTrap, TEV cleavage, second …)) MNPIVELFIKDFTKEVMEENAAIFAGAGLSMSVGYVSWAKLLEPIAQEIGLDVNKENDLVSLAQYYCNENQGNRGRINQIILDEFSRKVDLTENHKILARLPIHTYWTTNYDRLIEKALEEENKIADVKYTVKQLATTKVKRDAVVYKMHGDVEHPSEAVLIKDDYEKYSIKMDPYIKALSGDLVSKTFLFVGFSFTDPNLDYILSRVRSAYERDQRRHYCLIKKEERRPDELEADFEYRVRKQELFISDLSRFNIKTIVLNNYNEITEILQRIENNIKTKTVFLSGSAVEYNHWETEHAEQFIHQLSKELIRKDFNIVSGFGLGVGSFVINGVLEELYMNQGTIDDDRLILRPFPQGKKGEEQWDKYRRDMITRTGVSIFLYGNKIDKGQVVKAKGVQSEFNISFEQNNYVVPVGATGYIAKDLWNKVNEEFETYYPGADARMKKLFGELNNEALSIEELINTIIEFVEILSN", "values": [{"measurement": "stoichiometry N", "setting": "[2]", "value": "4 and 8"}]}, {"molecule": "selenomethionyl ThsA of Bacillus cereus MSX-D12 (crystallised) (enzyme, selenomethionine at seven of eight possible Met sites, ThsA, Bacillus cereus MSX-D12, synthetic thsA gene in pET28a; N-terminal sirtuin-like domain (residues 1-283) and C-terminal SLOG-like domain (residues 284-476) in the structure; Four protomers (chains A-D) in the asymmetric unit; The methods describe only selenomethionyl protein before the crystallisation; that the deposited structure is of this form is inferred; also called selenomethionyl …) MNPIVELFIKDFTKEVMEENAAIFAGAGLSMSVGYVSWAKLLEPIAQEIGLDVNKENDLVSLAQYYCNENQGNRGRINQIILDEFSRKVDLTENHKILARLPIHTYWTTNYDRLIEKALEEENKIADVKYTVKQLATTKVKRDAVVYKMHGDVEHPSEAVLIKDDYEKYSIKMDPYIKALSGDLVSKTFLFVGFSFTDPNLDYILSRVRSAYERDQRRHYCLIKKEERRPDELEADFEYRVRKQELFISDLSRFNIKTIVLNNYNEITEILQRIENNIKTKTVFLSGSAVEYNHWETEHAEQFIHQLSKELIRKDFNIVSGFGLGVGSFVINGVLEELYMNQGTIDDDRLILRPFPQGKKGEEQWDKYRRDMITRTGVSIFLYGNKIDKGQVVKAKGVQSEFNISFEQNNYVVPVGATGYIAKDLWNKVNEEFETYYPGADARMKKLFGELNNEALSIEELINTIIEFVEILSN", "values": [{"measurement": "binding result", "setting": "[3]", "value": "binds"}]}, {"molecule": "ThsA N112A mutant (enzyme, ThsA, Bacillus cereus MSX-D12, synthetic thsA gene in pET28a, point mutant made by PCR with mismatched primers; source: E. coli BL21(DE3), purified; not shown: His6, N-terminal, cleaved; MBP, N-terminal, cleaved) MNPIVELFIKDFTKEVMEENAAIFAGAGLSMSVGYVSWAKLLEPIAQEIGLDVNKENDLVSLAQYYCNENQGNRGRINQIILDEFSRKVDLTENHKILARLPIHTYWTTAYDRLIEKALEEENKIADVKYTVKQLATTKVKRDAVVYKMHGDVEHPSEAVLIKDDYEKYSIKMDPYIKALSGDLVSKTFLFVGFSFTDPNLDYILSRVRSAYERDQRRHYCLIKKEERRPDELEADFEYRVRKQELFISDLSRFNIKTIVLNNYNEITEILQRIENNIKTKTVFLSGSAVEYNHWETEHAEQFIHQLSKELIRKDFNIVSGFGLGVGSFVINGVLEELYMNQGTIDDDRLILRPFPQGKKGEEQWDKYRRDMITRTGVSIFLYGNKIDKGQVVKAKGVQSEFNISFEQNNYVVPVGATGYIAKDLWNKVNEEFETYYPGADARMKKLFGELNNEALSIEELINTIIEFVEILSN", "values": [{"measurement": "binding result", "setting": "[4]", "value": "binds"}]}]}
